Source: US20200002421A1 (AbbVie / Abbott, published 2020)
Where a chain is given by its changes, count along the chain named.

T1: Human full length B7-H3 (human, UniProt Q5ZPR3 29-534)
T1 sequence: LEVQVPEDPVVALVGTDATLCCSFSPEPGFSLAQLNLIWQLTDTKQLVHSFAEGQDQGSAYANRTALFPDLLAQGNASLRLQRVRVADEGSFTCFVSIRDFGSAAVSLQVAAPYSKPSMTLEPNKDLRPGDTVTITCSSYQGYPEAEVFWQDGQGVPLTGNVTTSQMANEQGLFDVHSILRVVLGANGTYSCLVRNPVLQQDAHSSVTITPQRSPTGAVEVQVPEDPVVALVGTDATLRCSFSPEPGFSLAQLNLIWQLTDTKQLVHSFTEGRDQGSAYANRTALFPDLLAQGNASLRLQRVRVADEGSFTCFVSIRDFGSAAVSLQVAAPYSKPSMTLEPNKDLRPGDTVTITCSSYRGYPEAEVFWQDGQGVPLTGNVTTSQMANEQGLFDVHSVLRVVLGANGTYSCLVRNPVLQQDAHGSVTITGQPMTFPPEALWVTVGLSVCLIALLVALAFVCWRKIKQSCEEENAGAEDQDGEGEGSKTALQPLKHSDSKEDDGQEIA

B1: huAb13v1-CZ (antibody, human IgG1, kappa, L234A L235A, V domains shown)
VH: EVQLQESGPGLVKPSETLSLTCAVTGYSITSGYSWHWIRQFPGNGLEWMGYIHSSGSTNYNPSLKSRISISRDTSKNQFFLKLSSVTAADTAVYYCAGYDDYFEYWGQGTTVTVSS
VL: DIQMTQSPSSLSASVGDRVTITCKASQNVGFNVAWYQQKPGKSPKALIYSASYRYSGVPSRFSGSGSGTDFTLTISSLQPEDFAEYFCQQYNWYPFTFGQGTKLEIKR
modifications: synthon CZ on interchain Cys
B2: huAb13v1-SR (antibody, human IgG1, kappa, L234A L235A, V domains shown)
VH: B1 VH
VL: B1 VL
modifications: synthon SR on interchain Cys
B3: huAb13v1-YG (antibody, human IgG1, kappa, L234A L235A, V domains shown)
VH: B1 VH
VL: B1 VL
modifications: synthon YG on interchain Cys
B4: huAb13v1-TV (antibody, human IgG1, kappa, L234A L235A, V domains shown)
VH: B1 VH
VL: B1 VL
modifications: synthon TV on interchain Cys
B5: huAb13v1-XW (antibody, human IgG1, kappa, L234A L235A, V domains shown)
VH: B1 VH
VL: B1 VL
modifications: synthon XW on interchain Cys
B6: huAb13v1-TX (antibody, human IgG1, kappa, L234A L235A, V domains shown)
VH: B1 VH
VL: B1 VL
modifications: synthon TX on interchain Cys
B7: huAb13v1-SE (antibody, human IgG1, kappa, L234A L235A, V domains shown)
VH: B1 VH
VL: B1 VL
modifications: synthon SE on interchain Cys
B8: huAb13v1-KZ (antibody, human IgG1, kappa, L234A L235A, V domains shown)
VH: B1 VH
VL: B1 VL
modifications: synthon KZ on interchain Cys
B9: huAb3v2.5-CZ (antibody, human IgG1, kappa, L234A L235A, V domains shown)
VH: EVQLVQSGAEVKKPGSSVKVSCKASGYTFSSYWMHWVRQAPGQGLEWIGLIHPESGSTNYNEMFKNRATLTVDRSTSTAYMELSSLRSEDTAVYYCAGGGRLYFDYWGQGTTVTVSS
VL: DIVMTQSPLSLPVTPGEPASISCRSSQSLVHSNRDTYLRWYLQKPGQSPQLLIYKVSNRFSGVPDRFSGSGSGTDFTLKISRVEAEDVGVYYCSQSTHVPYTFGGGTKVEIKR
modifications: synthon CZ on interchain Cys
B10: huAb3v2.5-TV (antibody, human IgG1, kappa, L234A L235A, V domains shown)
VH: B9 VH
VL: B9 VL
modifications: synthon TV on interchain Cys
B11: huAb3v2.5-ZZ (antibody, human IgG1, kappa, L234A L235A, V domains shown)
VH: B9 VH
VL: B9 VL
modifications: synthon ZZ on interchain Cys
B12: huAb3v2.6-AAA (antibody, human IgG1, kappa, L234A L235A, V domains shown)
VH: B9 VH
VL: B9 VL with R34Q
modifications: synthon AAA on interchain Cys
B13: huAb3v2.5-AAA (antibody, human IgG1, kappa, L234A L235A, V domains shown)
VH: B9 VH
VL: B9 VL
modifications: synthon AAA on interchain Cys
B14: huAb3v2.5-SR (antibody, human IgG1, kappa, L234A L235A, V domains shown)
VH: B9 VH
VL: B9 VL
modifications: synthon SR on interchain Cys
B15: huAb3v2.6-ZT (antibody, human IgG1, kappa, L234A L235A, V domains shown)
VH: B9 VH
VL: B9 VL with R34Q
modifications: synthon ZT on interchain Cys
B16: huAb3v2.6-WD (antibody, human IgG1, kappa, L234A L235A, V domains shown)
VH: B9 VH
VL: B9 VL with R34Q
modifications: synthon WD on interchain Cys
B17: huAb3v2.5-SE (antibody, human IgG1, kappa, L234A L235A, V domains shown)
VH: B9 VH
VL: B9 VL
modifications: synthon SE on interchain Cys
B18: huAb3v2.6-YY (antibody, human IgG1, kappa, L234A L235A, V domains shown)
VH: B9 VH
VL: B9 VL with R34Q
modifications: synthon YY on interchain Cys
B19: huAb3v2.5-WD (antibody, human IgG1, kappa, L234A L235A, V domains shown)
VH: B9 VH
VL: B9 VL
modifications: synthon WD on interchain Cys
B20: huAb3v2.6-CZ (antibody, human IgG1, kappa, L234A L235A, V domains shown)
VH: B9 VH
VL: B9 VL with R34Q
modifications: synthon CZ on interchain Cys
B21: huAb3v2.5-ZT (antibody, human IgG1, kappa, L234A L235A, V domains shown)
VH: B9 VH
VL: B9 VL
modifications: synthon ZT on interchain Cys
B22: huAb3v2.5-TX (antibody, human IgG1, kappa, L234A L235A, V domains shown)
VH: B9 VH
VL: B9 VL
modifications: synthon TX on interchain Cys
B23: huAb3v2.5-YG (antibody, human IgG1, kappa, L234A L235A, V domains shown)
VH: B9 VH
VL: B9 VL
modifications: synthon YG on interchain Cys
B24: huAb3v2.6-TX (antibody, human IgG1, kappa, L234A L235A, V domains shown)
VH: B9 VH
VL: B9 VL with R34Q
modifications: synthon TX on interchain Cys
B25: huAb3v2.5-XW (antibody, human IgG1, kappa, L234A L235A, V domains shown)
VH: B9 VH
VL: B9 VL
modifications: synthon XW on interchain Cys
B26: huAb3v2.6-ZZ (antibody, human IgG1, kappa, L234A L235A, V domains shown)
VH: B9 VH
VL: B9 VL with R34Q
modifications: synthon ZZ on interchain Cys
B27: huAb3v2.6-TV (antibody, human IgG1, kappa, L234A L235A, V domains shown)
VH: B9 VH
VL: B9 VL with R34Q
modifications: synthon TV on interchain Cys
B28: huAb3v2.6-LB (antibody, human IgG1, kappa, L234A L235A, V domains shown)
VH: B9 VH
VL: B9 VL with R34Q
modifications: synthon LB on interchain Cys
B29: huAb3v2.5-YY (antibody, human IgG1, kappa, L234A L235A, V domains shown)
VH: B9 VH
VL: B9 VL
modifications: synthon YY on interchain Cys
B30: huAb3v2.5-LB (antibody, human IgG1, kappa, L234A L235A, V domains shown)
VH: B9 VH
VL: B9 VL
modifications: synthon LB on interchain Cys
B31: huAb3v2.5-KZ (antibody, human IgG1, kappa, L234A L235A, V domains shown)
VH: B9 VH
VL: B9 VL
modifications: synthon KZ on interchain Cys
B32: huAb3v2.5-AAD (antibody, human IgG1, kappa, L234A L235A, V domains shown)
VH: B9 VH
VL: B9 VL
modifications: synthon AAD on interchain Cys
B33: huAb3v2.6-AAD (antibody, human IgG1, kappa, L234A L235A, V domains shown)
VH: B9 VH
VL: B9 VL with R34Q
modifications: synthon AAD on interchain Cys

Molecular target: T1, Human full length B7-H3
Test: cell-based or functional assay

First: B1
Second: B2
The “EC50 nM H1650 (in vitro tumor cell cytotoxicity)” value (from here on “EC50 nM H1650”) of the first is 3.3-fold lower: 0.18 nM for the first, 0.59 nM for the second.

B3 and B4 are within 1.5-fold of each other in “EC50 nM H1650” value: 0.33 nM for the first, 0.43 nM for the second.

First: B5
Second: B6
The “EC50 nM H1650” value of the first is 3.9-fold higher: 0.86 nM for the first, 0.22 nM for the second.

Going from B7 to B8, the “EC50 nM H1650” value rises from 0.63 nM to 179 nM (280-fold).

B9 and B10 are within 1.5-fold of each other in “EC50 nM H1650” value: 0.4 nM for the first, 0.53 nM for the second.

B11 and B12 are within 1.5-fold of each other in “EC50 nM H1650” value: 1.1 nM for the first, 1.24 nM for the second.

B13 and B14 are within 1.5-fold of each other in “EC50 nM H1650” value: 0.85 nM for the first, 0.59 nM for the second.

B15 and B16 are within 1.5-fold of each other in “EC50 nM H1650” value: 1.11 nM for the first, 0.79 nM for the second.

B17 and B18 are within 1.5-fold of each other in “EC50 nM H1650” value: 0.85 nM for the first, 0.72 nM for the second.

Compared with B19, B20 is 2.1-fold lower in “EC50 nM H1650” value: 0.83 nM for the first, 0.4 nM for the second.

Compared with B21, B22 is 1.5-fold lower in “EC50 nM H1650” value: 0.95 nM for the first, 0.62 nM for the second.

Compared with B23, B24 is 1.5-fold lower in “EC50 nM H1650” value: 0.71 nM for the first, 0.47 nM for the second.

First: B25
Second: B26
The “EC50 nM H1650” value of the first is 1.6-fold higher: 2.18 nM for the first, 1.35 nM for the second.

Going from B27 to B28, the “EC50 nM H1650” value rises from 0.52 nM to 2.07 nM (4-fold).

First: B29
Second: B30
The “EC50 nM H1650” value of the first is 3.6-fold lower: 0.71 nM for the first, 2.59 nM for the second.

Compared with B31, B32 is 1.8-fold lower in “EC50 nM H1650” value: 0.87 nM for the first, 0.49 nM for the second.

For B33, the “EC50 nM H1650” value was 0.85 nM.
